Assay results from patent US20240368664A1, “LIVE YEAST BIOSENSORS AND METHODS OF USE THEREOF” (priority 2021, published 2024).

Legend:
[1] = biological target: T1, Scheffersomyces stipitis pheromone GPCR SsSte2 (Scheffersomyces stipitis); test: cell-based or functional assay
T1 sequence: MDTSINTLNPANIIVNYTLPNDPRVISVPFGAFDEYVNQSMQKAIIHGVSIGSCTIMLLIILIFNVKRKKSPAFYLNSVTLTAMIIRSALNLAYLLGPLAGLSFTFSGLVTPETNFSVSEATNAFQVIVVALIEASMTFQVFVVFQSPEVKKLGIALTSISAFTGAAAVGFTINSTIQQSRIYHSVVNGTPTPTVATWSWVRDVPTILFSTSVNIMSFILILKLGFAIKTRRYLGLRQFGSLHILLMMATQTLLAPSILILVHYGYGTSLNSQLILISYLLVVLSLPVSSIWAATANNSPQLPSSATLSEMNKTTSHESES

[2] = biological target: T2, Schizosaccharomyces japonicus pheromone GPCR SjSte2 (Schizosaccharomyces japonicus); test: cell-based or functional assay
T2 sequence: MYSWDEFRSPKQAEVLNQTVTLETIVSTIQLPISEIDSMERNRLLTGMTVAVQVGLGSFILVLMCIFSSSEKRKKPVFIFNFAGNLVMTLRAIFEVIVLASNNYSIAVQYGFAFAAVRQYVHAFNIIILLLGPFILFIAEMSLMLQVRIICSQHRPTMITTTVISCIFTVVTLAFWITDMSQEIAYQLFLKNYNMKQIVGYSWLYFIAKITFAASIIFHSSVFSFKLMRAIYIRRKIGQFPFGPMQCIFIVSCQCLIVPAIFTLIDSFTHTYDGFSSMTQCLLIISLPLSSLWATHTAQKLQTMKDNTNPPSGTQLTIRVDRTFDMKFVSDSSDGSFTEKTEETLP

Row | Substance | EC50, mCherry, yMJ194 [1] | EC50, mCherry, yTC453 [1] | maximal activation, mCherry, yMJ194 [1] | maximal activation, mCherry, yTC453 [1] | apparent EC50, ymTurquoise2, strain co-expressing SjSxa2 [2]
1 | Scheffersomyces stipitis cognate peptide (SsPep) | 12 nM | 7 nM | 320 A.U. | 5300 A.U. | –
2 | S. japonicus pheromone peptide (SjPep) | – | – | – | – | 100 µM
